Key:
[1] = target: the molecule itself; assay: cryo-EM and cryo-electron tomography of assemblies formed in a cell-free assay; soluble protein alone (CrSAS-6_FL 10 uM or His-Stag-CrSAS-6_NL 20 uM in 20 mM Tris pH 7.5, 150 mM NaCl) dialysed >16 h against 10 mM K-PIPES pH 7.2; structures formed in solution vitrified and imaged
[2] = target: the molecule itself; assay: negative staining EM of assemblies; CrSAS-6_NL diluted in 10 mM K-PIPES pH 7.0 to 3 ug/ml, deposited on carbon-coated grids, stained with 2% uranyl acetate

B1: full-length CrSAS-6 (HisCrSAS-6_FL) (natural protein, Chlamydomonas reinhardtii, UniProt A9CQL4 1-728, looked up)
chain: MPLLLDDGDPKAQTGFDLSTATTLFWRPVPVHVKQQDREDVLEELTFRILTGVAKQNHNLRILRIHISSDSDLFFLHTLEVSEEDFQSLKNDQGILVDFASFPGKIISLLEKCILAQPGDSPRFQAVLTIRGGESVFKIVEINDFKQLPHITLAFRPGNDSVVKQFLAFRLSEVKGTCHDLSDDLSRTRDDRDSMVAQLAQCRQQLAQLREQYDKHLLEVQAQAKTQQASAHEERIREKSQLKDQFEKERGEMEGRYRDQIAALNTRLGELDTENRKLREVKYELDTKVSELSHKLGSSEGSNRSLEEETARLRSLNQQLSSSKHELEIQLNEAKAKVLALDEKAQSQGDVIEQQRGRLRDMEAALRQTEQRCADLRDTLASAEGRAKEAQAEVLKGNQAIEKLTNDLRLAKEKTKRKAAIILRQEEELQEREQSLANATRDVGVLGQQAESLRKDVASLHSENDSLRSKLEDSKQQLQSNEQMIRWLNQQVTEAQLHASGATVAGSRYAFRPSAALPGSMPPPSVAATPAVGLLAAPGPSTAYKPGGTTSRYASTLGVTGLSSGLSGAGATSVGAAVAGGSYGAGGDSSYRPGVGGAYASSGGAGGFGGSVGGGGQVGGSGSAIGAATGAGSALGTYRSSYAASTHPSPGGVTAGMGSTLTTPAVNRYAAGSYSSVSSSLSFGGGLGAARAVDATPAASKYGVGFSNAAMGVVGTVGGAGGTDAQRA
notes: SAS-6 protein Bld12p (CrSAS-6) of Chlamydomonas reinhardtii, full length; A 6xHis tag stands between the Prescission site and CrSAS-6 and remains after cleavage; also called Bld12p; GST-HisCrSAS-6_FL (before cleavage); source: E. coli BL21(DE3), purified (glutathione agarose beads, eluted with Prescission Protease to remove GST); not shown: GST, N-terminal, cleaved; His6, N-terminal, kept
B1: binds [1].

B2: His-Stag-CrSAS-6_NL(1-503) (domain or fragment, Chlamydomonas reinhardtii, UniProt A9CQL4 1-503, looked up)
chain: MPLLLDDGDPKAQTGFDLSTATTLFWRPVPVHVKQQDREDVLEELTFRILTGVAKQNHNLRILRIHISSDSDLFFLHTLEVSEEDFQSLKNDQGILVDFASFPGKIISLLEKCILAQPGDSPRFQAVLTIRGGESVFKIVEINDFKQLPHITLAFRPGNDSVVKQFLAFRLSEVKGTCHDLSDDLSRTRDDRDSMVAQLAQCRQQLAQLREQYDKHLLEVQAQAKTQQASAHEERIREKSQLKDQFEKERGEMEGRYRDQIAALNTRLGELDTENRKLREVKYELDTKVSELSHKLGSSEGSNRSLEEETARLRSLNQQLSSSKHELEIQLNEAKAKVLALDEKAQSQGDVIEQQRGRLRDMEAALRQTEQRCADLRDTLASAEGRAKEAQAEVLKGNQAIEKLTNDLRLAKEKTKRKAAIILRQEEELQEREQSLANATRDVGVLGQQAESLRKDVASLHSENDSLRSKLEDSKQQLQSNEQMIRWLNQQVTEAQLHASGAT
notes: CrSAS-6 (Bld12p) of Chlamydomonas reinhardtii, residues 1-503; C-terminal truncation that keeps the N-terminal domain and the entire coiled coil; This form was used for cryo-EM and cryo-ET; source: E. coli BL21(DE3), purified (Ni-NTA, size exclusion chromatography)
B2: binds [1].

B3: CrSAS-6_NL(1-503), 6xHis tag cleaved (domain or fragment, Chlamydomonas reinhardtii, UniProt A9CQL4 1-503, looked up)
chain: MPLLLDDGDPKAQTGFDLSTATTLFWRPVPVHVKQQDREDVLEELTFRILTGVAKQNHNLRILRIHISSDSDLFFLHTLEVSEEDFQSLKNDQGILVDFASFPGKIISLLEKCILAQPGDSPRFQAVLTIRGGESVFKIVEINDFKQLPHITLAFRPGNDSVVKQFLAFRLSEVKGTCHDLSDDLSRTRDDRDSMVAQLAQCRQQLAQLREQYDKHLLEVQAQAKTQQASAHEERIREKSQLKDQFEKERGEMEGRYRDQIAALNTRLGELDTENRKLREVKYELDTKVSELSHKLGSSEGSNRSLEEETARLRSLNQQLSSSKHELEIQLNEAKAKVLALDEKAQSQGDVIEQQRGRLRDMEAALRQTEQRCADLRDTLASAEGRAKEAQAEVLKGNQAIEKLTNDLRLAKEKTKRKAAIILRQEEELQEREQSLANATRDVGVLGQQAESLRKDVASLHSENDSLRSKLEDSKQQLQSNEQMIRWLNQQVTEAQLHASGAT
notes: CrSAS-6 (Bld12p) of Chlamydomonas reinhardtii, residues 1-503; This form was used for negative staining EM; also called 6xHis-CrSAS-6_NL(1-503) (before cleavage)
B3: binds [2].

— paper PMC5376648, “Cell-free reconstitution reveals centriole cartwheel assembly mechanisms” (Nature Communications, 2017)
